Data as given in article PMC4752478, “Probing the Catalytic Mechanism of Vibrio harveyi GH20 β-N-Acetylglucosaminidase by Chemical Rescue” (PLoS ONE, 2016).
Structures can show the parent of a compound that is named as a salt.

Assays:
[1] = test system: CC(=O)N[C@H]1[C@H](Oc2ccc([N+](=O)[O-])cc2)O[C@H](CO)[C@@H](O)[C@@H]1O; assay: purified protein; conditions: no sodium formate, 100 mM sodium phosphate pH 7.0, 37°C
VhGlcNAcase = target: T1, VhGlcNAcase (Vibrio harveyi, UniProt D9ISE0); assay: biochemical; conditions: read-out: Specific activity (nmol/min/μg) / 1 M HCOONa
T1 sequence (D9ISE0 1-642): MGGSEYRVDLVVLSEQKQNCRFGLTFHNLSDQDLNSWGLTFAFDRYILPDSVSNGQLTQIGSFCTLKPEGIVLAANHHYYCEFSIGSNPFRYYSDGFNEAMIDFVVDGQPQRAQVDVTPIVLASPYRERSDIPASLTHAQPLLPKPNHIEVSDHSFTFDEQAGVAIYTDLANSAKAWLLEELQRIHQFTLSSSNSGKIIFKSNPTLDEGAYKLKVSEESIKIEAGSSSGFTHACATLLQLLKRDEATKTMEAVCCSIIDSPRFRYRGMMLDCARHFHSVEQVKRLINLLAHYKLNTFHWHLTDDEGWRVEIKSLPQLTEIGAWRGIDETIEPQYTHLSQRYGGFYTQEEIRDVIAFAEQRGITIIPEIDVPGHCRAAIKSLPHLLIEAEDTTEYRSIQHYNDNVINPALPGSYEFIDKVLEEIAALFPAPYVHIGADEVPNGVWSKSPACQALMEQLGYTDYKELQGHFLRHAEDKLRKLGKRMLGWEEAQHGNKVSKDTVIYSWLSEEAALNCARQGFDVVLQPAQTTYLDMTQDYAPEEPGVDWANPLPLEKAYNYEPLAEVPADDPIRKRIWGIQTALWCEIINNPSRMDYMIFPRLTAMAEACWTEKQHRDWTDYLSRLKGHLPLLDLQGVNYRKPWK

| Compound | Km [1] [µM] | kcat [1] [s⁻¹] | kcat/Km [1] [M⁻¹ s⁻¹] | activity at 1 M (VhGlcNAcase) [%] |
| --- | --- | --- | --- | --- |
| VhGlcNAcase (Vibrio harveyi; D437A) | 390 ± 32 | 0.14 ± 0.01 | 360 | – |
| O=CO [sodium formate] | – | – | – | 80 |
